Results from article PMC3174212, “A Negative Feedback Loop That Limits the Ectopic Activation of a Cell Type–Specific Sporulation Sigma Factor of Bacillus subtilis” (PLoS Genetics, 2011).

T1: GST-σ^G (Bacillus subtilis, UniProt P19940 1-260)
T1 construct: RNA polymerase sigma-G factor of Bacillus subtilis; coding region of sigG amplified with primers sigG2016D and sigG2964R from pMS45 and cloned into pGex4T-3; also called GST-σ^Gwt; GST-σ^G fusion protein (wt); not shown: GST, N-terminal, kept
T1 sequence (looked up): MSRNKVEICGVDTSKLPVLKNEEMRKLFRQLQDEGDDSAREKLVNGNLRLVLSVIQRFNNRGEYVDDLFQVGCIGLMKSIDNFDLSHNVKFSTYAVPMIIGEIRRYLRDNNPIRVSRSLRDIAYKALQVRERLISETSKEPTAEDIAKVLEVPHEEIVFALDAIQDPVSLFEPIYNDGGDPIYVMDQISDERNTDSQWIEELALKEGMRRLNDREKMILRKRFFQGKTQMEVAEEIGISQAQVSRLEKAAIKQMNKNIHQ

T2: GST-σ^GN45A (Bacillus subtilis, UniProt P19940 1-260, N45A)
T2 construct: RNA polymerase sigma-G factor of Bacillus subtilis; coding region of sigGN45A amplified from pJS4 and cloned into pGex4T-3; not shown: GST, N-terminal, kept
T2 sequence (looked up): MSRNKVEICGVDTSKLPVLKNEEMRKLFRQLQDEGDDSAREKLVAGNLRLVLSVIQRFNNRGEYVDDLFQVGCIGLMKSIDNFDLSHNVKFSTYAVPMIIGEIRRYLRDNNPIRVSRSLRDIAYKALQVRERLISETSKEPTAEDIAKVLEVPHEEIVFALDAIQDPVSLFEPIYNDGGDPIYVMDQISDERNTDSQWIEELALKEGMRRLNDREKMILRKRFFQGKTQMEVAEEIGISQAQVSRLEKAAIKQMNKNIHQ


Experiments:
[1] = target: GST-σ^GN45E (Bacillus subtilis) (UniProt P19940); test: pull-down; GST or GST-σ^G fusions on glutathione Sepharose beads; 100 nM purified CsfB-Strep II tag; 30 min at room temperature; washed three times in 200 mM NaCl, 10 mM Tris-HCl pH 8.0, 10% glycerol; immunoblot with anti-Strep II tag; densitometry, average of three experiments
GST-σ^G = target: T1, GST-σ^G; test: as above; settings: both partners purified
GST-σ^GN45A [2] = target: T2, GST-σ^GN45A; test: as above; settings: both partners purified
[3] = target: GST-σ^GN45E (Bacillus subtilis) (UniProt P19940); test: pull-down; GST or GST-σ^G fusions on glutathione Sepharose beads; soluble extract of B. subtilis AH6608 (CsfB-GFP) 2 h after the onset of sporulation; 30 min at room temperature; washed three times in 200 mM NaCl, 10 mM Tris-HCl pH 8.0, 10% glycerol; immunoblot with anti-GFP and anti-SpoIIAB; densitometry, average of three experiments
GST-σ^GN45A [4] = target: T2, GST-σ^GN45A; test: as above; settings: one partner purified

Row | efficiency of the pull-down relative to the wild type (× of the wild type) [1] | binding result (GST-σ^G) | efficiency of the pull-down relative to the wild type (GST-σ^GN45A [2]) | efficiency of the pull-down relative to the wild type (× of the wild type) [3] | efficiency of the pull-down relative to the wild type (GST-σ^GN45A [4]) | Binder
1 | 0.2 | binds | ~0.6 × the efficiency of the wild type | – | – | CsfB-Strep II tag (natural protein, Bacillus subtilis, UniProt P37534 1-64, looked up, anti-sigma-G factor CsfB (Gin) of Bacillus subtilis; coding region of csfB amplified with primers csfB191D and csfBstrepR (which carries the Strep II tag) and cloned between NcoI and BamHI of pET16b; also called CsfB-Strep II-tagged protein; purified CsfB; source: E. coli BL21(DE3) grown in LB, purified (Strep-Tactin Sepharose); not shown: Strep II tag, C-terminal, kept) MDETVKLNHTCVICDQEKNRGIHLYTKFICLDCERKVISTSTSDPDYAFYVKKLKSIHTPPLYS
2 | – | – | – | 0.4 | 0.7 × of the wild type | CsfB-GFP fusion (natural protein, Bacillus subtilis, UniProt P37534 1-64, looked up, anti-sigma-G factor CsfB (Gin) of Bacillus subtilis, functional fusion to GFP; The construction of the csfB-gfp fusion stands in Text S1; source: B. subtilis AH6608 (csfB::km ΔsigG ΔamyE::csfB-gfp), soluble extract 2 h after the onset of sporulation in DSM) MDETVKLNHTCVICDQEKNRGIHLYTKFICLDCERKVISTSTSDPDYAFYVKKLKSIHTPPLYS
